Measurements taken from PMC1666580 (The Journal of Cell Biology, 2006).

Biological target: T1, bacterially expressed human SDC1 ectodomain (hS1ED) (human, UniProt P18827 23-254)
T1 sequence (looked up): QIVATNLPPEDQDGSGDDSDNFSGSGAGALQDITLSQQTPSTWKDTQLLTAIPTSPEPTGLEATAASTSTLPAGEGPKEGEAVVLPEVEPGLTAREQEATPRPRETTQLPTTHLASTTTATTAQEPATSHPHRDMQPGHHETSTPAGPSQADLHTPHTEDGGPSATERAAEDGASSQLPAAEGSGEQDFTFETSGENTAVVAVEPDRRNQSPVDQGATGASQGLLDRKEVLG
Test: pull-down

B1: lacritin-intein fusion protein (lacritin coupled to chitin beads via chitin-binding intein) (ligand, human, UniProt Q9GZZ8 20-138, looked up)
chain: EDASSDSTGADPAQEAGTSKPNEEISGPAEPASPPETTTTAQETSAAAVQGTAKVTSSRQELNPLKSIVEKSILLTEQALAKAGKGMHGGVPGGKQFIENGSEFAQKLLKKFSLLKPWA
binding result: binds
